Source: publication PMC3410853 (PLoS Pathogens, 2012)

B1: TGEV-neutralizing monoclonal antibody 1AF10 (site A, subsite Ac) (antibody, V domains shown)
VH: QVQLQQSGPELVKPGASVKISCKASGYAFSSSWMNWVKQRPGQGLEWIGRIYPGDGETNYSEKFKGKATLTADKSSSTAYMHLSSLTSVDSAVYFCARGGYRYDPYYAMDYWGQGTSVTVSS
VL: DILLTQSPAILSVSPGERVSLSCRASQSIGTSIHWYQQRTNGSPRPLIKYASESISGIPSRFSGSGSGTDFTLNINSVESEDIADYFCQQTDSWPTTFGAGTKLELK
notes: also called 1AF10 mAb; mAb 1AF10; source: hybridoma cells; purified mAb or hybridoma supernatant; copies: 2 + 2
B2: engineered soluble pAPN (ectodomain, residues 36 to 963) (domain or fragment)
chain: EKNKNAEHVPQAPTSPTITTTAAITLDQSKPWNRYRLPTTLLPDSYNVTLRPYLTPNADGLYIFKGKSIVRLLCQEPTDVIIIHSKKLNYTTQGHMVVLRGVGDSQVPEIDRTELVELTEYLVVHLKGSLQPGHMYEMESEFQGELADDLAGFYRSEYMEGNVKKVLATTQMQSTDARKSFPCFDEPAMKATFNITLIHPNNLTALSNMPPKGSSTPLAEDPNWSVTEFETTPVMSTYLLAYIVSEFQSVNETAQNGVLIRIWARPNAIAEGHGMYALNVTGPILNFFANHYNTSYPLPKSDQIALPDFNAGAMENWGLVTYRENALLFDPQSSSISNKERVVTVIAHELAHQWFGNLVTLAWWNDLWLNEGFASYVEYLGADHAEPTWNLKDLIVPGDVYRVMAVDALASSHPLTTPAEEVNTPAQISEMFDSISYSKGASVIRMLSNFLTEDLFKEGLASYLHAFAYQNTTYLDLWEHLQKAVDAQTSIRLPDTVRAIMDRWTLQMGFPVITVDTKTGNISQKHFLLDSESNVTRSSAFDYLWIVPISSIKNGVMQDHYWLRDVSQAQNDLFKTASDDWVLLNVNVTGYFQVNYDEDNWRMIQHQLQTNLSVIPVINRAQVIYDSFNLATAHMVPVTLALDNTLFLNGEKEYMPWQAALSSLSYFSLMFDRSEVYGPMKKYLRKQVEPLFQHFETLTKNWTERPENLMDQYSEINAISTACSNGLPQCENLAKTLFDQWMSDPENNPIHPNLRSTIYCNAIAQGGQDQWDFAWGQLQQAQLVNEADKLRSALACSNEVWLLNRYLGYTLNPDLIRKQDATSTINSIASNVIGQPLAWDFVQSNWKKLFQDYGGGSFSFSNLIQGVTRRFSSEFELQQLEQFKKNNMDVGFGSGTRALEQALEKTKANIKWVKENKEVVLNWFIEHS

Legend:
[1] = biological target: SA-Fc fusion protein (bivalent SA-Fc variant; TGEV S residues 481 to 650); assay: flow cytometry on cells (FACS, percentage of stained cells); settings: transiently transfected 293T cells expressing similar amounts of HA-tagged pAPN proteins; parent: est. 100; read off a plot
[2] = biological target: porcine aminopeptidase N (pAPN) on the surface of BHK-pAPN cells (UniProt P15145); assay: as above; settings: same concentration of wild type and mutant SA-Fc proteins, parent: est. 100, read off a plot
[3] = biological target: T1, SA-Fc fusion protein (bivalent SA-Fc variant; TGEV S residues 481 to 650) (Transmissible gastroenteritis virus …, strain); assay: ELISA
T1 construct: not shown: HA, N-terminal, kept; Fc (human IgG1), C-terminal, kept
T1 chain: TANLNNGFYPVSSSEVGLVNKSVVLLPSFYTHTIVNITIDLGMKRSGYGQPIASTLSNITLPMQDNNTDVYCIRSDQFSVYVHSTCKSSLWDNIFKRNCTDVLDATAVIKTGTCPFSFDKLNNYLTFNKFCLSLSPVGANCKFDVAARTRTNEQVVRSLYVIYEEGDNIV

[4] = biological target: the molecule itself; assay: SEC; soluble pAPN ectodomain on Superdex 200 16/60, HEPES-saline buffer pH 7.5

Molecule | percent of parent [1] | percent of parent [2] | also measured
recombinant membrane bound pAPN with an HA tag at the C-terminal end (from UniProt P15145) N736A | 3% |  | 
recombinant membrane bound pAPN with an HA tag at the C-terminal end (from UniProt P15145) T738V | 3% |  | 
SA-Fc fusion protein (bivalent SA-Fc variant; TGEV S residues 481 to 650) N632A |  | 15% | 
SA-Fc fusion protein (bivalent SA-Fc variant; TGEV S residues 481 to 650) V617Ngly |  | 105% | 
B1 |  |  | binding result [3]: binds
B2 |  |  | stoichiometry N [4]: 2
